We go through one molecule from US20120308575A1 (SHANGHAI BIOMABS PHARMACEUTICALS, published 2012).

For test [1], the target named is T1, recombinant human TNF-α (Product 210-TA-050, R&D) (human, UniProt P01375 77-233).
T1 construct: Bought protein; Amine-coupled to the chip in SPR, biotin-labelled in the P75 ELISA, FITC-labelled in the U937 assay; also called rhTNF-α; Recombinant TNFα (R&D)
In words: SPR, Biacore T100, TNFα amine-coupled to CM5 chip, antibody in flow. The procedure: After each examination, they were washed with 5 μl of 50 mM hydrochloric acid aqueous solution at a flow rate of 3 μl/min so as to wash away the residual antibodies from the immobilized ligands. The binding curves were subjected to nonlinear regression analysis using BIAevalution software (T100 evalution version 2.0, Biacore).

Test [2] deals with T1, recombinant human TNF-α (Product …). In words: competition ELISA: biotin-TNF-α (10 ng/ml) on coated P75 receptor-Fc, antibody titrated; experiment 2. As to the method: (§1) 10 μg/ml of P75 receptor-Fc fusion protein (which was prepared according to the method described in Chinese Patent Application No. 01132074.5 entitled “Recombinant genes, fusion genes and products of the soluble fragment of Tumor Necrosis Factor Receptor” filed on Oct. 31, 2001) was used to coat ELIAS plates and reacted at 37° C. for 2 h; 3% BSA-PBS was used to block the plate wells and reacted overnight at 4° C. […] The diluted samples and control samples were added to washed ELIAS plates with 100 μl/well and reacted at 37° C. for 1 h; the ELIAS plates were washed; HRP-avidin (Zymed) was diluted at 1:1000 with PBS and added to the ELIAS plates with 100 μl/well and reacted at 37° C. for 1 h; the ELIAS plates were washed; equal volumes of A solution and B solution (Jingmei BioTech Co. Ltd.) of TMB substrate for HRP were mixed and added to the ELIAS plates with 100 μl/well and reacted at room temperature for 10 minutes in darkness; each well was added with 100 μl of 0.5M sulphuric acid to stop the reaction. Absorbance at […] was measured using microplate reader. The concentration of samples was used as x-coordinate and absorbance was used as y-coordinate.
On the technique in general: In an ELISA, binding on a coated surface is turned into a signal by an enzyme label.

Test [3] shares this target. In words: flow cytometry competition: FITC-TNF-α (100 ng/ml) on U937 cells, antibody titrated; experiment 2. As to the method: (§2) U937 cells (ATCC CRL1593) were cultured in RPMI-1640 medium (GIBCO) containing 10% fetal bovine serum (JRH). […] The cells at logarithmic growth phase were counted and then centrifuged at 200 g for 5 min. Supernatant was removed and cell pellets were resuspended in PBS containing 1% fetal bovine serum. The cells were adjusted to a concentration 1×10⁶/ml, and then distributed into flow cytometry test tubes, with 100 μl/tube. […] The diluted samples and control samples were added into flow cytometry test tubes, with 100 μl/tube, and reacted at 4° C. for 1 hour in darkness; the cells were washed twice with PBS containing 1% fetal bovine serum, and centrifuged at 200 g for 5 min each time. Supernatant was removed and cell pellets were resuspended in 300 μl of PBS containing 1% fetal bovine serum. Flow cytometry was used to measure the fluorescence intensity of each tube. Sample concentration was plotted on the x-coordinate and […] was plotted on the y-coordinate.

Test [4] shares this target. In words: competition ELISA: biotin-TNF-α (10 ng/ml) on coated P75 receptor-Fc, antibody titrated; average of 3. The procedure: as §1
The target is the same in test [5]. In words: flow cytometry competition: FITC-TNF-α (100 ng/ml) on U937 cells, antibody titrated; experiment 3. As to the method: as §2
(In general: In flow cytometry, cells or beads pass a laser one at a time.)

Test [6] shares this target. In words: cell-based or functional assay.
Test [7] shares this target. Briefly: flow cytometry competition: FITC-TNF-α (100 ng/ml) on U937 cells, antibody titrated; average of 3. As to the method: as §2
For test [8] the target is unchanged. In words: competition ELISA: biotin-TNF-α (10 ng/ml) on coated P75 receptor-Fc, antibody titrated; experiment 3. As to the method: as §1
The target is the same in test [9]. Briefly: competition ELISA: biotin-TNF-α (10 ng/ml) on coated P75 receptor-Fc, antibody titrated; experiment 1. The procedure: as §1
The target is the same in test [10]. Briefly: flow cytometry competition: FITC-TNF-α (100 ng/ml) on U937 cells, antibody titrated; experiment 1. As to the method:
as §2

The Kd is the equilibrium constant for the complex coming apart. In general, koff refers to the first-order rate constant of dissociation. The term kon denotes the rate constant with which the complex forms. A word on the IC50: it is the concentration needed to halve the response being measured.

T1 sequence (P01375 77-233 limits assumed): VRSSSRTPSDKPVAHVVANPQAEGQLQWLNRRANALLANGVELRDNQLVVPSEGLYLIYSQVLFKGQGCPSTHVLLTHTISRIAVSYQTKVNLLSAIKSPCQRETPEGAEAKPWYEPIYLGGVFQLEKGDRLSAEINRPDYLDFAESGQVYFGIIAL

B1: fully human anti-TNF-α monoclonal antibody 4H16 (antibody, human IgG1, kappa, V domains shown)
VH: QVTLRESGPALVKPTQTLTLTCTFSGFSLSTSGMCVSWIRQPPGKALEWLALIDWDDDKYYSTSLKTRLTISKDTSKNQVVLTMTNMDPVDTATYYCARILVDIVATITNDAFDVWGQGTMVTVSS
VL: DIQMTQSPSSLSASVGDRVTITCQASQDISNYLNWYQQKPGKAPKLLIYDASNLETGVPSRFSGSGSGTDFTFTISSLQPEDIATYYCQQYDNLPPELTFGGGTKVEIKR
notes: The genes carried a signal peptide at the 5' end; also called fully human antibody 4H16
As to B1, the dissociation constant Kd in test [1] worked out at 0.36 nM. For the same molecule, the koff in test [1] was 5.7e-05 s⁻¹. In test [1], the kon was 158000 M⁻¹ s⁻¹. Also, the IC50 was found to be 0.31 µg/mL in test [2]; 1.03 µg/mL in [3]; 0.28 µg/mL in test [4]; 0.97 µg/mL in test [5]; 0.96 µg/mL in [7]; 0.27 µg/mL in test [8]. Moreover, the results for the IC50 in test [9] and in [10] were 0.25 µg/mL and 0.89 µg/mL, respectively. Besides, the “IC50 of resistance to TNF-α-mediated killing of L929 cells (MTS), average” value in [6] is 0.0572 µg/mL. The “IC50 of resistance to TNF-α-mediated killing of L929 cells (MTS), experiment 1” value in test [6] worked out at 0.0592 µg/mL. For the same molecule, in [6], the “IC50 of resistance to TNF-α-mediated killing of L929 cells (MTS), experiment 2” value was 0.0459 µg/mL. Moreover, the “IC50 of resistance to TNF-α-mediated killing of L929 cells (MTS), experiment 3” value in [6] amounted to 0.0664 µg/mL.
